Experimental data taken from patent US20030165489A1.

Key:
[1] = molecular target: T1, SP (substance P) (UniProt P20366)
T1 sequence: RPKPQQFFGLM

[2] = molecular target: SP (substance P) (UniProt P20366); assay: cell-based or functional assay

| Substance | degradation of SP identified by mass-spectrometry [1] | diminution of SP-evoked vasodilatory response (100 pg SP, pig in vivo, after 50 µg DPPIV) [2] [%] | diminution of SP-evoked vasodilatory response (1 ng SP, pig in vivo, after 50 µg DPPIV) [2] [%] |
| --- | --- | --- | --- |
| Recombinant dipeptidyl peptidase IV (DPPIV), soluble form secreted from Aspergilus Fumigatus | SP (1.8 µg) co-incubated with 0.016 µg of DPPIV for ten minutes at 37 °C is degraded to SP5-11 | – | – |
| Recombinant dipeptidyl peptidase IV (DPPIV), soluble form secreted from Aspergilus Fumigatus (enzyme) | – | 66 | 71 |
